Measured values taken from publication PMC5300155, “Biochemical and biophysical investigations of the interaction between human glucokinase and pro-apoptotic BAD” (PLoS ONE, 2017).
Positions count from the first letter of the chain named. Names and notes keep the numbering of the source.

Assays:
[1] = molecular target: recombinant human Bcl-xL, Δ45–84, Δ210–233 variant (human) (UniProt Q07817); test: fluorescence polarisation; competition: 200 nM f-BH3, 50 nM Bcl-xL, BAD forms varied 0–50 μM; room temperature
recombinant human Bcl-xL, Δ45–84, Δ210–233 variant (human), sequence (Q07817 other isoform, or with tags, fused parts or gaps mutant): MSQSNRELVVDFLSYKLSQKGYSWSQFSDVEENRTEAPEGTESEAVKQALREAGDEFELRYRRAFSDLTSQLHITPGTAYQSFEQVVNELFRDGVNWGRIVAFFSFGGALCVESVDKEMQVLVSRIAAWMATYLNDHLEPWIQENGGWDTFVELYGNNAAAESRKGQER

[2] = molecular target: T1, recombinant human Bcl-xL, Δ45–84, Δ210–233 variant (human, UniProt Q07817-1 1-209, Δ45–84); test: as above; conditions: both partners purified
T1 construct: Bcl-xL, human; loop 45-84 deleted and C-terminal residues 210-233 lacking; also called soluble, recombinant Bcl-xL
T1 sequence (Q07817 other isoform, or with tags, fused parts or gaps Δ45–84 | Δ45–84 | mutant): as the sequence (Q07817 other isoform, or with tags, fused parts or gaps mutant) above

[3] = molecular target: T2, human pancreatic GCK (Homo sapiens, UniProt P35557); test: Isothermal titration calorimetry with GCK; format: binding; conditions: GCK (100 μM) titrated into S118D BAD-GST (10–15 μM), 13 μL injections, BAD buffer pH 8.5, 25°C
T2 construct: hexahistidine (N); made in house; host or cells: glucokinase auxotroph BM5340(DE3)
T2 sequence (P35557 1-465): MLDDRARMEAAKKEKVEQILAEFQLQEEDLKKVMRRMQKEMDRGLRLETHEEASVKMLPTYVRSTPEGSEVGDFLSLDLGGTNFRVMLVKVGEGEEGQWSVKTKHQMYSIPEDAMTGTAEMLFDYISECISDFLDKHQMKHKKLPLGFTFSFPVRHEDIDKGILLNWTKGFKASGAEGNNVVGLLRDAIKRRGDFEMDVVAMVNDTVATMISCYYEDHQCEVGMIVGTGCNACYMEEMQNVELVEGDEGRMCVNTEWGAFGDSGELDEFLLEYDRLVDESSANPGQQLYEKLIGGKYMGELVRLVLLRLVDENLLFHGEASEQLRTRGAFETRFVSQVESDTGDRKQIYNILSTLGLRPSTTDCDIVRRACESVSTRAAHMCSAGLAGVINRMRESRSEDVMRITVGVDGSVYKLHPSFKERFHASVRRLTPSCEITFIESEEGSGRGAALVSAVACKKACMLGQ
Protocol: (§1) Recombinant human pancreatic GCK containing an N-terminal hexahistidine tag was produced in the glucokinase auxotroph BM5340(DE3) and purified using a previously described procedure. TEV protease was expressed as a GST-fusion protein from a pGEX plasmid encoding the S219V variant, provided by David Waugh (Addgene plasmid 8827). Expression was induced with IPTG (1 mM) for 4 h at 30°C. Cell pellets were resuspended in Tris buffer (50 mM, pH 8.0) containing NaCl (100 mM), glycerol (10% v/v), benzamidine (1 mM) and dithiothreitol (10 mM) and lysed via French Press. Polyethyleneimine (0.1%) was added to the lysate and protein was purified on a glutathione-affinity column (GSTrap, GE Sciences). TEV protease was flash frozen and stored at -80°C for up to 1 month.
Isothermal titration calorimetry was performed at 25°C using a MicroCal VP-ITC (GE Healthcare) instrument. Bcl-xL (100 μM) in BAD buffer (0.1 M Tris, 0.1 M KCl, 0.5 M arginine, 2.5 mM CHAPS, 5 mM TCEP, 10% glycerol, pH 8.5) was titrated into the calorimeter cell containing size-exclusion chromatography purified BAD-GST (10–18 μM) in 4 μL injections. A 21-residue phosphorylated peptide containing the BH3 domain of BAD was synthesized and purified to >95% by Peptide2.0 (pBH3 = NLWAAQRYGRELRRM(p)SDKFVD). The peptide (300 μM) in potassium phosphate buffer (25 mM) containing KCl (25 mM), TCEP (4 mM) and DMSO (5%) with and without glucose (200 mM) was titrated into the cell containing GCK (10 μM) previously dialyzed against the same buffer. GCK (100 μM) in BAD buffer was titrated into the cell containing S118D BAD-GST (10–15 μM) in 13 μL injections. Data were analyzed using Origin software.

[4] = molecular target: T3, Bcl-xL (Homo sapiens, UniProt Q07817, DEL45-84); test: Fluorescence polarization competition with f-BH3 for binding to Bcl-xL; conditions: ITC and fluorescence polarization assays
T3 construct: made in house
T3 sequence (Q07817 with tags, fused parts or gaps DEL45-84): as the sequence (Q07817 other isoform, or with tags, fused parts or gaps mutant) above
Protocol: Exon 1 of human bcl-xl lacking the C-terminal residues 189–233 was obtained from Stanley Korsmeyer (Addgene plasmid 8755) and site-directed mutagenesis was performed to create the Δ45–84, Δ210–233 variant. Bcl-xL was expressed and purified using a modified procedure described previously. Briefly, Bcl-xL was purified by nickel affinity chromatography and dialyzed against potassium phosphate buffer (20 mM, pH 7.4) containing NaCl (50 mM), EDTA (1 mM), and DTT (10 mM). Protein was applied to a Superdex 200 10/30 HR size-exclusion column, at a flow rate of 0.02 mL/min, to remove aggregate and oligomers prior to binding assays.
A fluorescence polarization assay developed by Zhang, et al. was utilized to measure interactions between BAD and its binding partners. Two 21-residue FITC-labeled peptides containing the BH3 domain of BAD were synthesized and purified to >95% by Peptide2.0 (f-BH3 = NLWAAQRYGRELRRMSDK(FITC)FVD; f-pBH3 = NLWAAQRYGRELRRM(p)SDK(FITC) FVD). Polarization was measured at room temperature with an excitation wavelength of 485 nm and an emission wavelength of 530 nm using a SpectraMax M5 microplate reader (Molecular Devices). Experiments to measure binding constants of the fluorescent peptides to Bcl-xL or GCK were performed in black 96-well plates. Each well contained 15 nM peptide, 60 μL BAD buffer (0.1 M Tris, 0.1 M KCl, 0.5 M arginine, 2.5 mM CHAPS, 5 mM TCEP, 10% glycerol, pH 8.5) and variable concentrations of Bcl-xL (0–2.25 μM) or GCK (0–400 μM) in assay buffer (20 mM phosphate buffer, pH 7.4, 1 mM EDTA, 50 mM NaCl, 10 mM DTT) in a final volume of 120 μL. High GCK concentrations were chosen in an effort to detect a signal indicating a binding event. Assays containing GCK also contained 250 mM glucose. […] Plates were incubated at room temperature in the dark for 15 min prior to polarization measurements.

[5] = molecular target: T4, GCK (Homo sapiens, UniProt P35557); test: GCK activity, microplate G6PDH-linked assay as described by Szlyk et al. (37°C); format: biochemical; conditions: S118D BADGST 5 μM, or pBH3 5 μM; GCK 7.5 nM, 96 well plate; S2 Fig
T4 construct: hexahistidine (N); made in house; host or cells: glucokinase auxotroph BM5340(DE3)
T4 sequence (P35557 1-465): T2 sequence (P35557 1-465)
Protocol: Steady state kinetics were also performed as described by Szlyk, et al.[13]. Briefly, G6PDH-linked assays were performed in clear 96-well plates at 37°C with a SpectraMax M5 microplate reader (Molecular Devices) recording absorbance at 340 nm every 30 s. Reaction mixtures contained GCK (7.5 nM), HEPES (100 mM, pH 7.4), KCl (150 mM), MgCl2(6 mM), DTT (1 mM), NAD (1 mM), BSA (0.05%), G6PDH (2.5 U), glucose (0.5–100 mM), and ATP (5 mM) in the presence or absence of BAD-GST S118D variant (5 μM) or phosphorylated BAD BH3 peptide (5 μM) in a final volume of 100 μL.
GCK (7.5 nM) was assayed in the presence of A. S118D BADGST (5 μM) or B. pBH3 (5 μM) in a 96 well plate using a microplate reader. Buffer conditions were as follows: Ref [13]: 100 mM Hepes, pH 7.4; 150 mM KCl; 1 mM NAD+; 0.05% BSA; 6 mM MgCl2; 1 mM DTT; 2.5 U G6PDH; 5 mM ATP. Optimal GCK conditions: 100 mM Hepes, pH 7.4; 150 mM KCl; 1 mM NADP+; 6 mM MgCl2; 10 mM DTT; 1.5 U G6PDH; 5 mM ATP. (EPS) Click here for additional data file.

[6] = molecular target: T2, human pancreatic GCK; test: GCK activity, G6PDH-linked assay (lab's routine assay, 25°C); format: biochemical; conditions: for Increase in GCK activity relative to unmodified / wild-type protein: only at glucose concentrations below K0.5 (3SD, 3SA), phosphorylated BAD after cleavage of GST tag
Protocol: as §1
GCK activity was assayed using a glucose 6-phosphate dehydrogenase (G6PDH)-linked assay at 25°C. 50 nM GCK was assayed in buffer containing HEPES (100 mM, pH 7.4), KCl (50 mM), NADP^+ (0.5 mM), DTT (10 mM), MgCl2 (7 mM), G6PDH (1.5 U) and glucose (0–100 mM) in a total volume of […]. Addition of ATP (6 mM) initiated the reaction. Production of NADPH was measured at 340 nm. To determine the effect of BAD on GCK activity, 5 μL of BAD or buffer control was added to the reaction in a final volume of 100 μL. K0.5 values were determined by fitting to the Hill equation. The effect of BAD on GCK activity is reported as the percent rate increase at individual glucose concentrations, calculated as the average of a minimum of four rates of BAD-containing assays divided by the average of rates of BAD buffer-containing assays. The results represent the average of at least three independent preparations of pure BAD.

Q: For “BAD following cleavage and removal of the GST tag (from UniProt Q92934 1-168) (natural protein)”, which IC50 [1] is on record?
A: 440 nM

B1: S75D-S99D-S118D triple variant of BAD-GST (natural protein, human, UniProt Q92934 1-168, looked up)
chain: MFQIPEFEPSEQEDSSSAERGLGPSPAGDGPSGSGKHHRQAPGLLWDASHQQEQPTSSSHHGGAGAVEIRSRHSDYPAGTEDDEGMGEEPSPFRGRSRDAPPNLWAAQRYGRELRRMDDEFVDSFKKGLPRPKSAGTATQMRQSSSWTRVFQSWWDRNLGRGSSAPSQ
notes: BAD, human; 507 bp bad cDNA amplified from the IMAGE clone; triple phosphomimic; also called 3SD; source: E. coli BL21(DE3), purified as BAD-GST; not shown: GST, C-terminal, kept
Q: With B1 as the molecule, how does the IC50 [2] read?
A: > 19 µM

B2: S118D variant: S118D phosphomimic variant of BAD-GST (protein)
chain: B1 chain with D75S, D99S
modifications: left off: His6, N-terminal, state not stated | GST, C-terminal, kept
Q: B2 was tested. Which “Binding to GCK by ITC” value [3] did it give?
A: no detectable binding event

Q: And the “Ability to interact with Bcl-xL (in words)” value [4]?
A: significantly impaired in their ability to interact with Bcl-xL

Q: And the “Effect on GCK kinetics under Szlyk et al. buffer conditions” value [5]?
A: did not increase BAD’s effects on GCK kinetics

B3: phosphorylated BAD: phosphorylated BAD after cleavage of the GST tag (protein)
chain: B1 chain with D75S, D99S, D118S
modifications: phosphoserine at 75, 99 and 118 (by PKA, as for phosphorylated BAD-GST); left off: His6, N-terminal, state not stated | GST, C-terminal, cleaved
notes: phosphorylated BAD after cleavage of the GST tag
Q: How did the “Increase in GCK activity relative to unmodified / wild-type protein” value [6] turn out when B3 was run?
A: to a similar extent as unmodified BAD

B4: 3SA: BAD-GST variant in which alanine was substituted at the three target serine residues (protein)
chain: B1 chain with D75A, D99A, D118A
modifications: left off: His6, N-terminal, state not stated | GST, C-terminal, kept
notes: BAD-GST variant in which alanine was substituted at the three target serine residues
Q: B4 was tested. Which “Increase in GCK activity relative to unmodified / wild-type protein” value [6] did it give?
A: to the same relative extent as wild-type BAD-GST

B5: S75D-S99D-S118D triple variant of BAD-GST: S75D-S99D-S118D triple variant of BAD-GST, mimics fully phosphorylated protein (protein)
chain: B1 chain
modifications: left off: His6, N-terminal, state not stated | GST, C-terminal, kept
notes: S75D-S99D-S118D triple variant of BAD-GST, mimics fully phosphorylated protein
Q: What does the source list for B5?
A: Activation of GCK by triple variant ([6]; 0.78 mM glucose, > 2 μM, comparable to phosphorylated BAD (15%)): A comparable degree of activation; Increase in GCK activity relative to unmodified / wild-type protein [6]: to the same relative extent as wild-type BAD-GST

B6: S75D-S99D double variant of BAD-GST (natural protein, human, UniProt Q92934 1-168, looked up)
chain: B1 chain with D118S
notes: BAD, human; 507 bp bad cDNA amplified from the IMAGE clone; double phosphomimic; source: E. coli BL21(DE3), purified as BAD-GST; not shown: GST, C-terminal, kept
Q: How did the IC50 [2] turn out when B6 was run?
A: 0.087 µM

B7: S118D BAD-GST variant (natural protein, human, UniProt Q92934 1-168, looked up)
chain: B1 chain with D75S, D99S
notes: BAD, human; 507 bp bad cDNA amplified from the IMAGE clone; phosphomimic; also called S118D variant; BAD-GST S118D; source: E. coli BL21(DE3), purified as BAD-GST; not shown: GST, C-terminal, kept
Q: For B7, which IC50 [2] is on record?
A: > 15 µM
